In the supplement of paper PMC9170038:

Tested on: MS2 coat protein
Assay: apparent KD of MS2 coat protein; designed switch direction (-1 OFF switch, 1 ON switch): -1; higher = weaker reporter binding
In short: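 An oligonucleotide input, 200 uM small-molecule ligand, or no input was present during titration of SNAP-549-labelled MS2 coat protein, which was doubled from 0.7 or 1.5 nM to 3 µM. Designed RNA switches had been transcribed on Illumina chips by stalled E. coli RNA polymerase. Apparent KD per design is the median over clusters of curves fitted to normalised cluster fluorescence.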

[1] = input ligand: microRNA oligo, concentration not stated
[2] = Eterna round: R95, input ligand: microRNA oligo, concentration not stated
[3] = Eterna round: R95, input ligand: FMN 200 uM
[4] = Eterna round: R95, input ligand: none

| Sequence | apparent KD of MS2 coat protein (input ligand: FMN 200 uM) [nM] | apparent KD of MS2 coat protein (input ligand: none) [nM] | apparent KD of MS2 coat protein [2] [nM] | further results |
| --- | --- | --- | --- | --- |
| CUAGGGCGCAUUUAAACGCCCUAACAUGAGGAUCACCCAUGUCAGGAUAUGUAGGCAAAGACCCUACAGAAGGGACAUGUCCUA [Lainceso] (Eterna round: R96, puzzle: Exclusion NG 3) | 264 | 72.7 | – | apparent KD of MS2 coat protein [1]: 57.1 nM |
| CUAUUCCGAGGAUAUACAUGAGGAUCACCCAUGUCGGGCCUCUGCGUUUAGCGCGUAAGUAGAAGGUGGGUUUC [JL Riri mod 8] (puzzle: Exclusion 3) | – | – | 27.1 | – |
| CUAUUUUUCGCAGGAUAUGCAUCUCCUUUAUUAGCAGAAGGGCGUUAAACAUGAGGAUCACCCAUGUAUUGUGGUGCUUUUUUC [JR_ExcNG1_Sub059] (Eterna round: R96, puzzle: Exclusion NG 1) | 214 | 57.9 | – | apparent KD of MS2 coat protein [1]: 54.3 nM |
| CUCAGACAUGAGGAUCACCCAUGUCAGGAUAUCGUCUACCUGUGGAAACACAGGUAGACGAGAAGGGAUGUGUU [SS1 Omei 3 v1] (puzzle: Exclusion 1) | – | – | 43.5 | – |
| CUCAUGCCUGAGGAUAUGCUGUACAAAAGUACUGCAGAAGGCAGAACAUGAGGAUCACCCAUGUGGCGAAAGCC [Omei Ex G1] (Eterna round: R97, puzzle: Exclusion 6) | 549 | 106 | – | – |
| CUCAUGUGAGGAUAUCACCCAAGAGUGAGCAAUCACUAUCAUGAGAAGGCACAUGAGGAUCACCCAUGUUAAAA [Xesoer] (Eterna round: R97, puzzle: Exclusion 4) | 11.5 | 57.7 | – | – |
| CUCAUGUGAGGAUAUCAGUAGUAAAAAAAUAAAAUUACUACUGAGAAGGCACAUGAGGAUCACCCAUGUGCCAA [EX4 337: Super Stable 37] (Eterna round: R96, puzzle: Exclusion 4) | – | – | – | apparent KD of MS2 coat protein [1]: 12.8 nM |
| CUCAUGUGAGGAUAUGAGUUAGGGCGAGAGCCCUAUGAAAAUUAGAAGGCACAUGAGGAUCACCCAUGUGAGAA [Rerige] (Eterna round: R97, puzzle: Exclusion 4) | 211 | 169 | – | – |
| CUCAUGUGAGGAUAUGUGAUCUGCCUUCUAUGUAGAUGAUCACAGAAGGCACAUGAGGAUCACCCAUGUAGAUC [Ex4 - 3 - 27] (puzzle: Exclusion 4) | – | – | 69.2 | – |
| CUCCAGCAAGGAUAUACAUAGUGACGUCUGUUUAAUCUUAAACAUGAGGAUCACCCAUGUAGAAGGUGCGUCAC [Biqugeza] (Eterna round: R97, puzzle: Exclusion 2) | 19.4 | 17.1 | – | – |
| CUCCAGCAAGGAUAUACGUGUCUAAGAAGAGGUCUUAUGCUACAUGAGGAUCACCCAUGUAGAAGGUGCGGACA [EX2 C.2] (Eterna round: R97, puzzle: Exclusion 2) | 14.4 | 15.4 | – | – |
| CUCCCUCGGGUUAGGAUAUGCUACUGGCUUCAGAUGCAGAAGGAACAUGAGGAUCACCCAUGUACCAAAUAAAA [BmEX4 B.15] (Eterna round: R97, puzzle: Brourd's mod of Exclusion 4) | 35 | 14.5 | – | – |
| CUCCUCAUGGCGCCUAAACACAUGAGGAUCACCCAUGUACAGGCCUUUUGCCGUCUUAUAAUAAAACCGAGGAUGCG [Lainxezabe] (puzzle: Sensor v3, turn-off variant 1) | – | – | 223 | apparent KD of MS2 coat protein [3]: 29.6 nM; apparent KD of MS2 coat protein [4]: 26.8 nM |
| CUCCUGUGAGGAUAUGUAGGCCGCCCGGUCAGCCGAGCGAGACAGAAGGCACAUGAGGAUCACCCAUGUGACUC [EX4 B.13] (Eterna round: R97, puzzle: Exclusion 4) | 42.2 | 16.6 | – | – |
| CUCGUGUAAGGAUAUGUACCGACACCGCUAAAGCGGCUCCGACAGAAGGUACAUGAGGAUCACCCAUGUACUGC [EX4 B.2] (Eterna round: R97, puzzle: Exclusion 4) | 25.9 | 20.3 | – | – |
| CUCUUGGCAGGAUAUGCUUUUUUAGACAUGAGGAUCACCCAUGUGAUGAAUAUUGGGUUCGCAGAAGGGCCUGAAU [JR_E5_Sub040] (puzzle: Exclusion 5) | – | – | 48.4 | – |
| CUCUUGUUAGGAUAUCAAACUGGCGGCGGAGCCGGCAGUAGUGAGAAGGGACAUGAGGAUCACCCAUGUAAGAA [Veeder] (puzzle: Exclusion 4) | – | – | 55.1 | – |

| Sequence | apparent KD of MS2 coat protein (input ligand: FMN 200 uM) [nM] | apparent KD of MS2 coat protein (input ligand: none) [nM] | apparent KD of MS2 coat protein [2] [nM] | further results |
| --- | --- | --- | --- | --- |
| CUGAACCCGGUAGGAUAUAUUGUGGGCAGGCGUGGAACGACAUGAGGAUCACCCAUGUAAUUUAGGUAGAAGGGCCGAGAGAUU [Excl-NG2-LRO13] (Eterna round: R96, puzzle: Exclusion NG 2) | 22.9 | 37.3 | – | apparent KD of MS2 coat protein [1]: 21.7 nM |
| CUGACGGCAGGAUAUACAUGAGGAUCACCCAUGUAAAUUUUUCGUUUAACUUGAAUGUGUAGAAGGGCCCAACC [Ex3 #79] (Eterna round: R97, puzzle: Exclusion 3) | 19.6 | 21.5 | – | – |
| CUGAGCAGACGGAGAUCCAACAUGAGGAUCACCCAUGUCUCAAAAGCUUUUUGCUCAUCUUAUCCUCCUCUGUUCUC [Edcesobi] (puzzle: Sensor v3, turn-off variant 1) | – | – | 336 | apparent KD of MS2 coat protein [3]: 20.5 nM; apparent KD of MS2 coat protein [4]: 17.9 nM |
| CUGAGCAGACGGAGAUCCAACAUGAGGAUCACCCAUGUCUCAAAAGCUUUUUGCUUGUCUUAUUCUCCUCUGUUCAC [Enradibe] (puzzle: Sensor v3, turn-off variant 1) | – | – | 31.6 | apparent KD of MS2 coat protein [3]: 13.2 nM; apparent KD of MS2 coat protein [4]: 11.2 nM |
| CUGAGCUGAGGAUAUACAUGAGGAUCACCCAUGUGUUCCAGCUUGCGUACAGGCAGAUGUAGAAGGCAGUUCGG [JL-ex3-3.35 Brourd mod] (puzzle: Exclusion 3) | – | – | 38.9 | – |
| CUGAGGUAGCGGUCCUAUGACAUGAGGAUCACCCAUGUACCUUGCUUCGAGCUUUUUGCUCGUCUUAUGAUUCUCAG [Mat - Sensor v3 - turn-off var 1 - JL Mod - D32] (puzzle: Sensor v3, turn-off variant 1) | – | – | 405 | apparent KD of MS2 coat protein [3]: 114 nM; apparent KD of MS2 coat protein [4]: 162 nM |
| CUGAGUAGUCAGGAUAUGUGGUACAAAAGUACUGCAGAAGGGAUUACAUGAGGAUCACCCAUGUUAUCUUCAUG [Omei Ex6 B19] (Eterna round: R97, puzzle: Exclusion 6) | 368 | 144 | – | – |
| CUGAGUCUAGGAUAUACAUGAGGAUCACCCAUGUAAAGUAGCUUGCGUACAGGCAGAUGUAGAAGGAGAUUCGG [Mod of JL 10 - Jieux - Exclusion 3] (Eterna round: R97, puzzle: Exclusion 3) | 33.2 | 24.6 | – | – |
| CUGAUGUCAGGAUAUCAGAAAAGGCACAAGAACGCGCCAAAUGAGAAGGGACAUGAGGAUCACCCAUGUAAAAC [Reena] (puzzle: Exclusion 4) | – | – | 28.2 | apparent KD of MS2 coat protein [3]: 87.1 nM; apparent KD of MS2 coat protein [4]: 27.9 nM |
| CUGAUGUCAGGAUAUCAGAAAAGGUGCGAGGACGCACCAAAUGAGAAGGGACAUGAGGAUCACCCAUGUAAAAC [Inbeenen] (puzzle: Exclusion 4) | – | – | 19.2 | – |
| CUGAUGUGAGGAUAUCGGGCUACGGCCAGGCCGCUAGCAUUCGAGAAGGCACAUGAGGAUCACCCAUGUGAGAA [Laquzara] (Eterna round: R96, puzzle: Exclusion 4) | 230 | 153 | – | apparent KD of MS2 coat protein [1]: 112 nM |
| CUGAUGUGAGGAUAUCUAAAAGAAACUGGGCAAAAUACCAGAGAGAAGGCACAUGAGGAUCACCCAUGUAACGA [Rabigeri] (puzzle: Exclusion 4) | – | – | 19.5 | – |
| CUGAUGUUAGGAUAUCAGGCACCCGCCACUGGCAGGGCGCAUGAGAAGGGACAUGAGGAUCACCCAUGUAGUAA [Gelaoren] (puzzle: Exclusion 4) | – | – | 21.3 | – |
| CUGCUCCGUGUAGGAUAUGCGCGCACCACCCGCGCAGAAGGACAUGAGGAUCACCCAUGUAUGUUAUUAUCACGUGUGGCGCGC [Design 38] (Eterna round: R96, puzzle: Exclusion NG 1) | 12.6 | 15.9 | – | apparent KD of MS2 coat protein [1]: 11.1 nM |
| CUGCUGGAGUUUCGCUUUGGUCGUACAUGAGGAUCACCCAUGUAGGAUAUGGUAAAAUUCGCCUGCUAGAAGGAUAGAGUGGUC [salish99_ExNG3_r04_620] (Eterna round: R96, puzzle: Exclusion NG 3) | 48.1 | 42.3 | – | apparent KD of MS2 coat protein [1]: 38.6 nM |
| CUGCUGGAGUUUUGCUUUGGUCGUACAUGAGGAUCACCCAUGUAGGAUAUGGUAAAAUUCGCCUGCUAGAAGGAUAGAGUGGUC [salish99_ExNG3_r04_621] (Eterna round: R96, puzzle: Exclusion NG 3) | 35.5 | 32.4 | – | apparent KD of MS2 coat protein [1]: 23 nM |
